± gives the uncertainty stated by the source.
Assay: self-splicing fitness, log relative to wild type (ln ratio); higher = more splicing; Tetrahymena group I intron in knt gene, E. coli kanamycin selection, DiMSum; sequences stand for … in CUCUCU…GGAGGGAAAAGUUAUCAGGCAUGCACCUGGUAGCUAGUCUUUAAACCAAUAGAUUGCAUCGGUUUAAAAGGCAAGACCGUCAAAUUGCGGGAAAGGGGUCAACAGCCGUUCAGUACCAAGUCUCAGGGGAAACUUUGAGAUGGCCUUGCAAAGGGUAUGGUAAUAAGCUGACGGACAUGGUCCUAACCACGCAGCCAAGUCCUAAGUCAACAGAUCUUCUGUUGAUAUGGAUGCAGUUCACAGACUAAAUGUCGGUCGGGGAAGAUGUAUUCUUCUCAUAAGAUAUAGUCGGACCUCUCCUUAAUGGGAGCUAGCGGAUGAAGUGAUGCAACACUGGAGCCGCUGGGAACUAAUUUGUAUGCGAAAGUAUAUUGAUUAGUUUUGGAGUACUCGUGGUCG
Outline: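 Pooled colonies went to amplicon sequencing on an Illumina HiSeq 2500 after six replicate transformations. The plates were LB agar with 100 μg/mL carbenicillin, 50 μM IPTG and 0.2% rhamnose, with or without 25 μg/mL kanamycin, incubated overnight at 37°C or 30°C. The E. coli BL21(DE3) library had all eight P1ex-region intron nucleotides randomised, the intron placed in the knt kanamycin-resistance gene on pET-22b(+). DiMSum fitness is the error-weighted combination of replicate fold changes, kanamycin against none, normalised to wild type.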

| Sequence | self-splicing fitness (ln) (30 °C) | self-splicing fitness (ln) (37 °C) |
| --- | --- | --- |
| ACACAGCAAUAUUACGCUUA | -1.75 ± 0.098 | -1.7 ± 0.075 |
| CCGAAGCAAUAUUACGUGCC | -2.83 ± 0.29 | -2.64 ± 0.44 |
| GAGUAGCAAUAUUACGCCAG | -3.3 ± 0.26 | -2.75 ± 0.48 |
| GAUCAGCAAUAUUACGCCGU | -0.933 ± 0.098 | -0.477 ± 0.12 |
| GGUAAGCAAUAUUACGAGUU | -1.56 ± 0.097 | -0.413 ± 0.12 |
| CUCAAGCAAUAUUACGUCCU | -4 ± 0.27 | -2.79 ± 0.19 |
| GUAGAGCAAUAUUACGAUAA | -1.5 ± 0.15 | 0.242 ± 0.19 |
| ACAGAGCAAUAUUACGCUAG | -3.28 ± 0.19 | -2.61 ± 0.18 |
| UCAGAGCAAUAUUACGGUUU | -3.76 ± 0.28 | -2.07 ± 0.18 |
| UCUCAGCAAUAUUACGGGCC | -2.05 ± 0.2 | -1.37 ± 0.27 |
| GAGAAGCAAUAUUACGAUUC | -0.752 ± 0.094 | -0.653 ± 0.15 |
| GAUAAGCAAUAUUACGGAGG | -1.43 ± 0.13 | -2.92 ± 0.29 |
| UAGUAGCAAUAUUACGCACA | -1.2 ± 0.1 | -0.493 ± 0.12 |
| ACUUAGCAAUAUUACGGAUG | -1.73 ± 0.13 | -1.53 ± 0.2 |
| UUACAGCAAUAUUACGGCAC | -1.77 ± 0.17 | -2.26 ± 0.18 |
| UACGAGCAAUAUUACGGAGA | -3.09 ± 0.33 | -2.84 ± 0.45 |
| AGCCAGCAAUAUUACGGCAC | -1.26 ± 0.13 | -0.402 ± 0.15 |
| UAGAAGCAAUAUUACGGGUA | -1.02 ± 0.16 | -0.329 ± 0.14 |
| CGAGAGCAAUAUUACGGGGG | -3.83 ± 0.43 | -3.14 ± 0.47 |
| AUCAAGCAAUAUUACGAUAU | -1.21 ± 0.065 | -0.753 ± 0.092 |
| GCGCAGCAAUAUUACGCGAC | -1.77 ± 0.12 | -1.79 ± 0.18 |
| CGCGAGCAAUAUUACGAUCG | -2.08 ± 0.11 | -2.66 ± 0.29 |
| GACCAGCAAUAUUACGGCAG | -3.74 ± 0.3 | -3.28 ± 0.25 |
